Assay results: patent US20190161555A1 (ALLIGATOR BIOSCIENCE, published 2019)
Residue numbers refer to the chain shown, from its start.

T1: murine OX40 (murine, UniProt P47741 20-211, limits assumed)
T1 construct: also called mouse OX40
T1 sequence (looked up): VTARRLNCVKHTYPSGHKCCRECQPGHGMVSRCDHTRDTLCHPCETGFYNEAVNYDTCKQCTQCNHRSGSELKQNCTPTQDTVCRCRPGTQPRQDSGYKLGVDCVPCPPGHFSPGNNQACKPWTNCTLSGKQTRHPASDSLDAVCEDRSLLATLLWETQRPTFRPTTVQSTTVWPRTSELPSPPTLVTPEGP

T2: Human OX40 (R&D Systems, 3388-OX) (human, UniProt P43489 29-216)
T2 construct: bought; also called OX40-Fc; Human OX40 (R&D systems, #3358_OX)
T2 sequence (looked up): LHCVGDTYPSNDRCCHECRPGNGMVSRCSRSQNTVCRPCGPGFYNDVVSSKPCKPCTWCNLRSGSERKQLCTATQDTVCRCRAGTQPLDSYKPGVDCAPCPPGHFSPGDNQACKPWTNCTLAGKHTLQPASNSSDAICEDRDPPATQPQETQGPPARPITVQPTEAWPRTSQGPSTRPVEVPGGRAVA

T3: Construct 84: full length OX40 (human, UniProt P43489 29-277)
T3 construct: whole, on cells
T3 sequence (looked up): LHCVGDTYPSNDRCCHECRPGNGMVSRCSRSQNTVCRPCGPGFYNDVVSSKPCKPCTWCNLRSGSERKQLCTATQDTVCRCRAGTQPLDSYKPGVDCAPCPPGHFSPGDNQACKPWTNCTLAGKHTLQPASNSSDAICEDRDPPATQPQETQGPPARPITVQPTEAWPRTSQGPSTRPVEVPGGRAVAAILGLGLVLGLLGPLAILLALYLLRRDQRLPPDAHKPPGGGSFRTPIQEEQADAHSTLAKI

T4: human OX40 overexpressed on CHO cells (human, UniProt P43489 29-214; P25942 194-277)
T4 construct: extracellular domain;domain: transmembrane and intracellular part; also called hOX40; huOX40 (CHO)
T4 sequence (looked up): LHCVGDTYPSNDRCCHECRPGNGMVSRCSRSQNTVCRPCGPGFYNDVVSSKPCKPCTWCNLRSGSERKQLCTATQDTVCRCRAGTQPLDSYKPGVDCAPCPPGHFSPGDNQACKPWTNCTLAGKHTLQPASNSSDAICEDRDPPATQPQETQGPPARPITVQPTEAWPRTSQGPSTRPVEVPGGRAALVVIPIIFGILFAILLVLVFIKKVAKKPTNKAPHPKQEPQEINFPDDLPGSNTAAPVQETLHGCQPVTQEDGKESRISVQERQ

B1: 1170/1171 (antibody, V domains shown)
VH: EVQLLESGGGLVQPGGSLRLSCAASGFTFGGYYMSWVRQAPGKGLEWVSYIPGSGGSTYYADSVKGRFTISRDNSKNTLYLQMNSLRAEDTAVYYCARYDYYWMDYWGQGTLVTVSS
VL: DIQMTQSPSSLSASVGDRVTITCRASQSISSYLNWYQQKPGKAPKLLIYAASSLQSGVPSRFSGSGSGTDFTLTISSLQPEDFATYYCQQGHGSYPHTFGQGTKLEIK
notes: OX40 antibody, tested as IgG
B2: 1526/1527 (antibody, V domains shown)
VH: EVQLLESGGGLVQPGGSLRLSCAASGFTFSGYSMYWVRQAPGKGLEWVSGIGYSGYGTYYADSVKGRFTISRDNSKNTLYLQMNSLRAEDTAVYYCARYYFHDYAAYSLDYWGQGTLVTVSS
VL: B1 VL with G91Y, H92G, G93S, S94D, Y95S, P96L, H97L
notes: OX40 antibody, tested as IgG
B3: 1168/1135 (antibody, V domains shown)
VH: EVQLLESGGGLVQPGGSLRLSCAASGFTFSGSSMSWVRQAPGKGLEWVSSISYYGGYTYYADSVKGRFTISRDNSKNTLYLQMNSLRAEDTAVYYCARYFPHYYFDYWGQGTLVTVSS
VL: not shown
notes: OX40 antibody, tested as IgG
B4: 1490/1135 (antibody, V domains shown)
VH: B3 VH with G31S, S32Y, S33A, S50G, F100Y, Y103H, F105I
VL: not shown
notes: OX40 antibody, tested as IgG
B5: 1542/1135 (antibody, V domains shown)
VH: EVQLLESGGGLVQPGGSLRLSCAASGFTFGSSSMYWVRQAPGKGLEWVSGIGYYSYSTSYADSVKGRFTISRDNSKNTLYLQMNSLRAEDTAVYYCARGYPHHYFDYWGQGTLVTVSS
VL: not shown
notes: OX40 antibody, tested as IgG
B6: 1482/1483 (antibody, V domains shown)
VH: EVQLLESGGGLVQPGGSLRLSCAASGFTFSSYAMSWVRQAPGKGLEWVSYISYYSGYTYYADSVKGRFTISRDNSKNTLYLQMNSLRAEDTAVYYCARGYGYLDYWGQGTLVTVSS
VL: DIQMTQSPSSLSASVGDRVTITCRASQSISSYLNWYQQKPGKAPKLLIYAASSLQSGVPSRFSGSGSGTDFTLTISSLQPEDFATYYCQQYGSLLTFGQGTKLEIK
notes: OX40 antibody, tested as IgG
B7: 1514/1515 (antibody, V domains shown)
VH: EVQLLESGGGLVQPGGSLRLSCAASGFTFGYYYMSWVRQAPGKGLEWVSGISSYGSYTYYADSVKGRFTISRDNSKNTLYLQMNSLRAEDTAVYYCARSGYSNWANSFDYWGQGTLVTVSS
VL: DIQMTQSPSSLSASVGDRVTITCRASQSISSYLNWYQQKPGKAPKLLIYAASSLQSGVPSRFSGSGSGTDFTLTISSLQPEDFATYYCQQGDYTLFTFGQGTKLEIK
notes: OX40 antibody, tested as IgG

Each binder was assayed against T1, murine OX40 (assay: ELISA).

Row | binding result | Binder
1 | no binding | B1
2 | no binding | B2
3 | no binding | B3
4 | no binding | B4
5 | no binding | B5
6 | no binding | B6
7 | no binding | B7

These binders were tested against CD40 (Ancell) (UniProt P25942 21-193, limits assumed) (assay: ELISA, CD40 coated).
Sequence of CD40 (Ancell) (P25942 21-193 limits assumed): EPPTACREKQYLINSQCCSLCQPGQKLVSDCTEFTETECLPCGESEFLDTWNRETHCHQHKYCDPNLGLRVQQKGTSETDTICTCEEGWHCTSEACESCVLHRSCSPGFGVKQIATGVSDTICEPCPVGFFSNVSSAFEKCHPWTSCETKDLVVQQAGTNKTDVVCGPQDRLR
Method: (§1) ELISA plates were coated with human OX40 (R&D Systems, 3388-OX), CD40 (Ancell), or CD137 (R&D Systems) at 0.1 or 0.5 μg/ml. The ELISA plates were washed with PBST and then blocked with PBST+2% BSA for 1 h at room temperature and then washed again with PBST. The antibodies were added in dilution series to the ELISA plates for 1 h at room temperature and then washed with PBST. Binding was detected using goat anti human kappa light chain HRP, incubated for 1 h at room temperature. SuperSignal Pico Luminescent was used as substrate and luminescence was measured using Fluostar Optima.

Row | binding result | Binder
8 | no binding | B1
9 | no binding | B2
10 | no binding | B3
11 | no binding | B4
12 | no binding | B5
13 | no binding | B6
14 | no binding | B7

The binders below were run against CD137 (R&D Systems) (UniProt Q07011 24-186, limits assumed) (assay: ELISA, CD137 coated).
Sequence of CD137 (R&D Systems) (Q07011 24-186 limits assumed): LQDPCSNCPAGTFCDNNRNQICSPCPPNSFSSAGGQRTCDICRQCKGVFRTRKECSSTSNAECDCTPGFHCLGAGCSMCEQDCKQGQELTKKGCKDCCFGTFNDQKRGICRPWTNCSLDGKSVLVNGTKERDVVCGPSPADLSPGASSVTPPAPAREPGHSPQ
Method: as §1

Row | binding result | Binder
15 | no binding | B1
16 | no binding | B2
17 | no binding | B3
18 | no binding | B4
19 | no binding | B5
20 | no binding | B6
21 | no binding | B7

What follows are binders tested against T2, Human OX40 (R&D Systems, 3388-OX) (assay: ELISA, plates coated with human OX40, IgG).
Method: as §1

Row | EC50 [nM] | Binder
22 | < 1 | B2
23 | < 1 | B3
24 | < 1 | B5
25 | < 1 | B6

These binders were tested against T3, Construct 84: full length OX40 (assay: flow cytometry, 293-F cells transfected with the construct).
Method: The transfected cells were incubated with human OX40 antibodies, human OX40L (hOX40L, RnD Systems), mouse OX40L (mOX40L, RnD Systems) and controls for 30 min 4° C. and then detected with a-huIgG-PE (Jackson Immunoresearch) 30 min 4° C. Cells were analyzed with FACS Verse (BD Biosciences). Binding to the different chimeric constructs were calculated as relative (mean fluorescence intensity) MFI compared to the binding of the isotype control.

Row | relative MFI [fold over isotype control] | Binder
26 | 21.4 | B2
27 | 29.6 | B3
28 | 29.4 | B5
29 | 24.9 | B6

These binders were tested against Macaca mulatta OX40 on HEK cells (Macaca mulatta; human) (assay: flow cytometry, macOX40-HEK cells; ends of the 95% confidence interval).
Method: For the assay, the transfected cells were incubated with the test antibodies and controls for 30 min at 4° C. and then detected with a-huIgG-PE (Jackson Immunoresearch) 30 min 4° C. Cells were analyzed by flow cytometry with FACS Verse (BD Biosciences).

Row | EC50 [µg/mL] | Binder
30 | 0.292 to 0.589 | B2
31 | 0.0905 to 0.194 | B3
32 | 0.722 to 1.41 | B5
33 | 0.157 to 0.312 | B6

These binders were tested against T4, human OX40 overexpressed on CHO cells (assay: flow cytometry, cells with human OX40; ends of the 95% confidence interval).

Row | EC50 [µg/mL] | Binder
34 | 0.172 to 0.429 | B2
35 | 0.0636 to 0.131 | B3
36 | 0.322 to 0.552 | B5
37 | 0.082 to 0.182 | B6

What follows are binders tested against T2, Human OX40 (R&D Systems, 3388-OX) (assay: SPR Biacore, human OX40 amine-coupled on CM5, antibody injected, 1:1 Langmuir).
Method: Human OX40 (R&D systems, #3358_OX) was immobilized to the Biacore™ sensor chip, CM5, using conventional amine coupling. The tested antibodies and controls (serially diluted 1/3 or 1/2 100-2 nM) were analyzed for binding in HBS-P (GE, #BR-1003-68) at a flow rate of […]. The association was followed for 3 minutes and the dissociation for 20 minutes. Regeneration was performed twice using 50 mM NaOH for 60 seconds. The kinetic parameters and the affinity constants were calculated using 1:1 Langmuir model with drifting baseline. […] The kinetic parameters and the affinity constants were calculated using BIAevaluation 4.1 software.

Row | Kd [nM] | koff [s⁻¹] | kon [M⁻¹ s⁻¹] | Binder
38 | 0.43 | 0.000187 | 435000 | B2
39 | 0.327 | 0.000169 | 518000 | B3
40 | 0.463 | 0.0001 | 216000 | B5
41 | 0.753 | 0.000584 | 776000 | B6
